Test results published in patent US20240301048A1 (LANIER BIOTHERAPEUTICS, published 2024).

Legend:
[1] = target: T1, recombinant human IL-17A (R&D Systems) (human, UniProt Q16552 24-155); test: cell-based or functional assay
[2] = target: T1, recombinant human IL-17A (R&D Systems); test: cell-based or functional assay; remark: listed apart in the source
[3] = target: T1, recombinant human IL-17A (R&D Systems); test: cell-based or functional assay; remark: listed apart in the source
[4] = target: T1, recombinant human IL-17A (R&D Systems); test: SPR, Biacore T-100; antibody immobilized on CM5 chip, rhIL17A 2.5-40 nM as analyte, single cycle kinetics
Procedure: The surface was regenerated with a 30 second exposure of 10 mM Glycine-HCL pH 1.5. Single cycle kinetic analysis was performed on each antibody with the reference cell subtracted.

T1 sequence (Q16552 24-155 limits assumed): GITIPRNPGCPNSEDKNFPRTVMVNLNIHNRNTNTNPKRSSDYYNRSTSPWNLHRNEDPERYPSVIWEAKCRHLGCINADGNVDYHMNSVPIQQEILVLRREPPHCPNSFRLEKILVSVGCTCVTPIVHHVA

B1: Ixekizumab (antibody, V domains shown)
VH: QVQLVQSGAEVKKPGSSVKVSCKASGYSFTDYHIHWVRQAPGQGLEWMGVINPMYGTTDYNQRFKGRVTITADESTSTAYMELSSLRSEDTAVYYCARYDYFTGTGVYWGQGTLVTVSS
VL: DIVMTQTPLSLSVTPGQPASISCRSSRSLVHSRGNTYLHWYLQKPGQSPQLLIYKVSNRFIGVPDRFSGSGSGTDFTLKISRVEAEDVGVYYCSQSTHLPFTFGQGTKLEIKR
[1]
  IL-17A Bioassay Potency (IC50, nM): 0.39 nM
[2]
  IC50 (read off the curve), CXCL1 in HT29 cells: ~0.1 µg/mL
[3]
  IC50 (read off the curve), IL-6 in 3T3 cells: ~0.2 µg/mL
[4]
  Kd: 0.0069 nM
  koff: 1.39e-05 s⁻¹
  kon: 2.01e+06 M⁻¹ s⁻¹

B2: ABM60 (antibody, V domains shown)
VH: EVHLKESGPDLVAPSQSLSITCTVSGFSLTTYGVHWVRQPPGKGLEWLVVIWSDGLTTYNSALKSRLSISKDNSKSQVFLKMNSLRTDDTAMYYCARDYTYEYAMDYWGQGTTVTVSS
VL: DILLTQSPLSLPVSLGDQASISCRSSQSLVHSNGNTYLHWYLQKPGQSPKLLIYKVSNRFSGVPDRFSGSESGTDFTLKISRVEAEDLGVYFCSQSTHVPFTFGSGTKLEIKR
[3]
  IC50 (read off the curve), IL-6 in 3T3 cells: ~0.8 µg/mL
[4]
  Kd: 0.24 nM
  koff: 5.65e-05 s⁻¹
  kon: 278000 M⁻¹ s⁻¹

B3: ABM64 (antibody, V domains shown)
VH: QVHVKQSGPELVRPGVSVKISCKGSGYTFTDYAMHWVKQSHAKSLEWIGVISTYSGNTNYNQKFKGKATMTVDKSSSTAYMELARLTSEDSAIYYCARGNYGSDWGQGTLVTVSA
VL: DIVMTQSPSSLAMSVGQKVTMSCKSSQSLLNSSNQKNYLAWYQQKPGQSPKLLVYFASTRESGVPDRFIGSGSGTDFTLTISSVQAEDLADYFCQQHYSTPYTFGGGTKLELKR
[4]
  Kd: 0.248 nM
  koff: 0.000311 s⁻¹
  kon: 1.25e+06 M⁻¹ s⁻¹

B4: ABM67 (antibody, V domains shown)
VH: EVKLVESGGGLVKPGGSLKLSCAASGFTFSSYAMSWVRQTPEKRLEWVATISSGGSYTYYPDSVKGRFTISRDNAKNTLYLQMSSLRSEDTAMYYCARQNWDAFVYWGQGTLVTASA
VL: DIVLTQSPAILSVSPGERVSFSCRAGQSIGTSIHWYQRRTNGSPRLLIKSASESISGIPSRFSGSGSGTDFTLSINSVESEDIADYYCQQSNSWPLTFGAGTKLEIKR
[4]
  Kd: 0.169 nM
  koff: 0.000121 s⁻¹
  kon: 713000 M⁻¹ s⁻¹

B5: ABM59 (antibody, V domains shown)
VH: EVKLVESGGGLVKPGGSLKLSCAASGFAFSSYDMSWVRQTPEKRLEWVAYISSGGGNTYYPDTVKGRFTISRDNAKNTLYLQMSSLKSEDTAMYYCAREALTMISTRDYYAMDYWGQGTSVTVSS
VL: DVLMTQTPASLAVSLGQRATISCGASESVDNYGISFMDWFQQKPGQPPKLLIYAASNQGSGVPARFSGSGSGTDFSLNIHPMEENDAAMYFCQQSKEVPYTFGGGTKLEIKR
[4]
  Kd: 0.506 nM
  koff: 0.00057 s⁻¹
  kon: 1.13e+06 M⁻¹ s⁻¹
